In US20150104459A1:

How the values were obtained:
[1] = biological target: recombinant soluble homotrimeric HA of A/common magpie/Hong Kong/5052/07 (H5N1) (Influenza A virus A/common magpie/Hong Kong/5052/2007 (H5N1)); assay: HA microarray, control mAb
[2] = biological target: M2 protein of influenza A/Japan/305/57 (H2N2), on inactivated whole virions (influenza A virus A/Japan/305/57 (H2N2)); assay: ELISA, positive control antibody on inactivated whole virions

Sequence of TCN-032 (8I10) (antibody) (VH): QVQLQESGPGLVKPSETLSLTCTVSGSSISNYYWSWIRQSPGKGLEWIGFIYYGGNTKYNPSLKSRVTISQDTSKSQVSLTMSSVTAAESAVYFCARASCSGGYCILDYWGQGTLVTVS
Sequence of TCN-032 (8I10) (antibody) (VL): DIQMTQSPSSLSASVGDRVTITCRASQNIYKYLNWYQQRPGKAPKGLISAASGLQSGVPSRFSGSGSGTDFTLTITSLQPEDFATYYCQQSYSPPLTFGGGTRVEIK

Substance | Trimeric HA Binding RLU [1] | ELISA virus binding (OD450) [2]
TCN-202 (2N9) (antibody) | 162 RLU | –
TCN-032 (8I10) (antibody) | – | 3.61 OD450
